Reference: patent KR20230038028A (dated 2023)

How the values were obtained:
Assay in all cases: western blot of E. coli lysate supernatant
S2p2-2(서열 686~1144) = molecular target: T1, S2p2-2(서열 686~1144) (SARS-CoV-2, UniProt P0DTC2 686-1144)
T1 construct: range 686-1144

[1] = molecular target: T2, His-S2p2-1(서열 686~1177 아미노산) (SARS-CoV-2, UniProt P0DTC2 686-1177)
T2 construct: range 686-1177

His-S2p2(서열 686~1207) = molecular target: T3, His-S2p2(서열 686~1207) (SARS-CoV-2, UniProt P0DTC2 686-1207)
T3 construct: range 686-1207

Measured: binding result

B1: 항-스파이크2(Spike2, S2) 단일클론 항체 4A5 (antibody, V domains shown)
VH: QVKLEQSGPGILQPSQTLSLTCSFSGFSLSTSGMGVSWIRQSSGKGLEWLTHIYWDDDKRYNPSLKSRLTISKDTSRNQVFLKITSVDTADTATYYCARRRMITGLYYAMDYWGQGTSVTVSS
VL: DIVMTQSTLSLPVSFGDQVSISCRSSQSLANSYGITYLSWYLHKPGQSPQLLIYGISNRFSGVPDRFSGSGSGTDFTLKISTIKPEDLGMYYCLQGTHQPWTFGGGTKLEIKR
notes: also called 4A5 항체; 항-S2 항체 4A5
binds: all assays above
